Earlier results as cited in article PMC5326574.

Key:
[1] = target: Prolactin (second site) (Homo sapiens) (UniProt P01236)
Prolactin (Homo sapiens) = Prolactin (Homo sapiens) (UniProt P01236); test: SPR
ERK2 (Homo sapiens) = ERK2 (Homo sapiens) (UniProt P28482); test: NMR
Sequence of UniProt P28482 (P28482 2-360): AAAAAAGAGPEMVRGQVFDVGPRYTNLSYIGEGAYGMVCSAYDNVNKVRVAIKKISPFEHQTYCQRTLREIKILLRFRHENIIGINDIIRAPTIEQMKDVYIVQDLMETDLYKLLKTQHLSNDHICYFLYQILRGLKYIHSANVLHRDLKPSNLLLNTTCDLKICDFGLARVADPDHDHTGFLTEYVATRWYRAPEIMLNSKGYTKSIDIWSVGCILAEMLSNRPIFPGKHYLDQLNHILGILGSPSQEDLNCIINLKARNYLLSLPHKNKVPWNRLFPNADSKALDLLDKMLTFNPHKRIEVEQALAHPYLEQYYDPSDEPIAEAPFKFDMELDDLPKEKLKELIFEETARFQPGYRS

Kd [1] [µM] | Kd (Prolactin (Homo sapiens)) [µM] | Kd (ERK2 (Homo sapiens)) [µM] | Substance
33 | 0.006 |  | Prolactin receptor ECD (from UniProt P16471)
 |  | 30 | NHE1 C-terminal distal tail (NHE1cdt) (from UniProt P19634)
